Assay results as given in US20070169210A1 (EMORY UNIVERSITY, published 2007).

Experiments:
[1] = molecular target: SED1, endogenous, of mouse sperm and male reproductive tract (mouse) (UniProt P21956); assay: cell-based or functional assay
[2] = molecular target: zona pellucida of unfertilized (ovulated) oocytes; assay: cell-based or functional assay
[3] = molecular target: T1, SED1 expressed in COS-7 cells (SED1-COS), on secreted membrane vesicles (mouse, UniProt P21956 23-463); assay: blot overlay, zona glycoproteins resolved under reducing conditions, detected with anti-SED1
T1 construct: Cloned into pcDNA3.1 D/V5-His-Topo; Used as SED1-enriched membrane vesicles released by COS-7 cells; also called COS-expressed SED1
T1 sequence: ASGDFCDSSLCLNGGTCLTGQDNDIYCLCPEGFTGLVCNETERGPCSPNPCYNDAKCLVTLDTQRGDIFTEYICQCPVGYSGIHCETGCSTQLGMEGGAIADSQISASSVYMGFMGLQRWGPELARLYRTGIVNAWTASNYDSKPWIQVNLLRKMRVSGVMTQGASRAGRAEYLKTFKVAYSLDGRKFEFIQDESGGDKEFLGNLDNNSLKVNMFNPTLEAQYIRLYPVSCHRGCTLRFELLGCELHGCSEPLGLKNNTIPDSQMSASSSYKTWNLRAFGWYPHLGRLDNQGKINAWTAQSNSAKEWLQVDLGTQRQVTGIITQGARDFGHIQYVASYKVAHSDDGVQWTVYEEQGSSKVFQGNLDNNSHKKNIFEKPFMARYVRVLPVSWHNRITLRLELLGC
Description: (§1) The purification of zona pellucida glycoproteins was done as published elsewhere (Miller et al., 1992). The proteins were resolved on 10% polyacrylamide gels and transferred onto Immobilon-P membranes (Millipore) as above. The membranes were blocked in TBST containing 2% BSA for 1 hr at 25° C. Subsequently, membranes were incubated with either (His)₆-SED1, biotinylated (His)₆-SED1, SED1 prepared from COS-7 cells, or biotinylated WGA-lectin (positive control) for 1 hr at 25° C. and washed three times for 10 min in TBST, followed by incubation with either rabbit anti-SED1 and goat anti-rabbit-HRP, or Streptavidin-HRP (Zymed). The membranes were washed, developed, and exposed to film as above.
To determine which of the three zona glycoproteins could serve as the putative ligand for SED1, […]. When zona glycoproteins were resolved under reducing conditions, SED1 bound to glycoproteins comigrating as ZP1/ZP2 as well as ZP3 (FIG. 3D). Similar results were achieved using either biotinylated (His)₆-SED1 (D-SED1) detected by Streptavidin-HRP/ECL or recombinant (His)₆-SED1 (rSED1) detected by rabbit-anti-SED1 IgG and HRP-conjugated secondary antibodies (FIG. 3D). […]

[4] = molecular target: T2, ZP1 zona pellucida glycoprotein (murine, UniProt Q62005 21-546); assay: blot overlay of zona glycoproteins resolved under nonreducing conditions, biotinylated (His)6-SED1, streptavidin-HRP
T2 construct: Native glycoprotein on a blot, non-reducing conditions
T2 sequence (looked up): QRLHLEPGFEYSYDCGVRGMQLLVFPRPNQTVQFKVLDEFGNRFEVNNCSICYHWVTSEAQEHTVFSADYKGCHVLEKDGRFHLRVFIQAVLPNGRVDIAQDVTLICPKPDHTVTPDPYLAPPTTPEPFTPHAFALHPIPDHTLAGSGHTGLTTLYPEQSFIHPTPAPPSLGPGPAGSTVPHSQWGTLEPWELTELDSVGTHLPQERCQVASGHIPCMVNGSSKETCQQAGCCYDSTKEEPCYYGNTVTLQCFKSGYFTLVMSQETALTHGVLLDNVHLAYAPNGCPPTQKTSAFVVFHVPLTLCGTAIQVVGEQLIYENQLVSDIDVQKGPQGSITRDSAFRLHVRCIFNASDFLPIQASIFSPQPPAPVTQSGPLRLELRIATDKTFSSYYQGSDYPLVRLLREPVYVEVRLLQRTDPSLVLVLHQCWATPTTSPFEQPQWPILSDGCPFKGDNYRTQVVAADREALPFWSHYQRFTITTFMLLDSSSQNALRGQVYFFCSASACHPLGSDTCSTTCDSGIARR
Description: as §1

preimmune rabbit serum / preimmune IgG (antibody)
binding of GalT I null sperm to the zona, % of control (% of control binding at 200 µg/ml) [1]: 91

(His)6-SED1 truncated fusion protein EEC (both EGF repeats, one discoidin/C domain)
binding of GalT I null sperm to the zona, % of control (% of control at 3.8 µg/ml) [2]: 21

B1: ZP3 zona pellucida glycoprotein (other, murine, UniProt P10761 23-351, looked up)
chain: QTLWLLPGGTPTPVGSSSPVKVECLEAELVVTVSRDLFGTGKLVQPGDLTLGSEGCQPRVSVDTDVVRFNAQLHECSSRVQMTKDALVYSTFLLHDPRPVSGLSILRTNRVEVPIECRYPRQGNVSSHPIQPTWVPFRATVSSEEKLAFSLRLMEENWNTEKSAPTFHLGEVAHLQAEVQTGSHLPLQLFVDHCVATPSPLPDPNSSPYHFIVDFHGCLVDGLSESFSAFQVPRPRPETLQFTVDVFHFANSSRNTLYITCHLKVAPANQIPDKLNKACSFNKTSQSWLPVEGDADICDCCSHGNCSNSSSSQFQIHGPRQWSKLVSRN
notes: Native glycoprotein on a blot, reducing and non-reducing conditions
binding result [3]: binds

B2: SED1, endogenous, of mouse sperm and male reproductive tract (protein)
chain: ASGDFCDSSLCLNGGTCLTGQDNDIYCLCPEGFTGLVCNETERGPCSPNPCYNDAKCLVTLDTQRGDIFTEYICQCPVGYSGIHCETGCSTQLGMEGGAIADSQISASSVYMGFMGLQRWGPELARLYRTGIVNAWTASNYDSKPWIQVNLLRKMRVSGVMTQGASRAGRAEYLKTFKVAYSLDGRKFEFIQDESGGDKEFLGNLDNNSLKVNMFNPTLEAQYIRLYPVSCHRGCTLRFELLGCELHGCSEPLGLKNNTIPDSQMSASSSYKTWNLRAFGWYPHLGRLDNQGKINAWTAQSNSAKEWLQVDLGTQRQVTGIITQGARDFGHIQYVASYKVAHSDDGVQWTVYEEQGSSKVFQGNLDNNSHKKNIFEKPFMARYVRVLPVSWHNRITLRLELLGC
sperm bound per egg, SED1 null sperm [2]: 1.45 sperm/egg
sperm bound per egg, wild-type sperm [2]: 11.2 sperm/egg

B3: (His)6-SED1 fusion protein (full-length recombinant mouse SED1 expressed in E. coli) (other)
chain: HHHHHHASGDFCDSSLCLNGGTCLTGQDNDIYCLCPEGFTGLVCNETERGPCSPNPCYNDAKCLVTLDTQRGDIFTEYICQCPVGYSGIHCETGCSTQLGMEGGAIADSQISASSVYMGFMGLQRWGPELARLYRTGIVNAWTASNYDSKPWIQVNLLRKMRVSGVMTQGASRAGRAEYLKTFKVAYSLDGRKFEFIQDESGGDKEFLGNLDNNSLKVNMFNPTLEAQYIRLYPVSCHRGCTLRFELLGCELHGCSEPLGLKNNTIPDSQMSASSSYKTWNLRAFGWYPHLGRLDNQGKINAWTAQSNSAKEWLQVDLGTQRQVTGIITQGARDFGHIQYVASYKVAHSDDGVQWTVYEEQGSSKVFQGNLDNNSHKKNIFEKPFMARYVRVLPVSWHNRITLRLELLGC
modifications: biotinylated with Sulfo-NHS-LC-LC-Biotin in the bead assays and in the streptavidin-detected blot overlays
notes: also called rSED1; recombinant SED1
binding of GalT I null sperm to the zona, % of control (% of control at 6 µg/ml) [2]: 27
binding result [4]: no binding
